Tests used:
[1] = target: GOLD-EVD68 3A fusion protein, wild type (human | enterovirus D68) (UniProt Q9H3P7); test: SEC
[2] = target: GOLD-EVD68 3A fusion protein, wild type (human | enterovirus D68) (UniProt Q9H3P7); test: […]; 30 mM Tris pH 7.4, 150 mM NaCl, 1 mM TCEP; […]
[3] = target: GB1-fused cytoplasmic domain of the enterovirus D68 3A protein, wild type (enterovirus D68); test: SEC
[4] = target: EGFP-fused ACBD3 GOLD domain (human) (UniProt Q9H3P7); test: MST; EGFP-fused GOLD domain at a constant 150 nM, GB1-fused 3A cytoplasmic domain in a series of concentrations; 30 mM Tris pH 7.4, 150 mM NaCl, 3 mM β-mercaptoethanol; Monolith NT.115
[5] = target: GOLD-3A fusion protein LVVY mutant N-terminally fused to mAmetrine or mPlum (UniProt Q9H3P7); test: FRET by flow cytometry in HeLa cells (self-association of mAmetrine- and mPlum-fused GOLD-3A); details: mean FRET signal at a fixed acceptor signal (dashed line in f, acceptor fluorescence 100 a.u.); three independent experiments; p-value = 0.004; parent: est. …; read off a plot

GOLD-EVD68 3A fusion protein, wild type (from UniProt Q9H3P7)
stoichiometry N [1]: 2
stoichiometry N [2]: 2

GB1-fused cytoplasmic domain of the enterovirus D68 3A protein, wild type (domain or fragment)
stoichiometry N [3]: 2
Kd [4]: 1 µM

GB1-fused cytoplasmic domain of the rhinovirus B14 3A protein (domain or fragment)
Kd [4]: 1 µM

wild-type GOLD-3A fusion protein N-terminally fused to mAmetrine or mPlum (from UniProt Q9H3P7) L25A; V29A; V34A; Y37A
response [5]: 3.9 a.u.

GB1-fused cytoplasmic domain of the enterovirus A71 3A protein (domain or fragment)
Kd [4]: 15 µM
